Source: the DeepSol protein solubility set

Assay: soluble on expression in E. coli; label from the status in PepcDB or PDB records

Sequence	soluble on expression in E. coli
MIKLSEKGVFLASNNEIIAEEHFTGEIKKEEAKKGTIAWSILSSHNTSGNMDKLKIKFDSLASHDITFVGIVQTAKASGMERFPLPYVLTNCHNSLCAVGGTINGDDHVFGLSAAQRYGGIFVPPHIAVIHQYMREMMAGGGKMILGSDSHTRYGALGTMAVGEGGGELVKQLLNDTWDIDYPGVVAVHLTGKPAPYVGPQDVALAIIGAVFKNGYVKNKVMEFVGPGVSALSTDFRNSVDVMTTETTCLSSVWQTDEEVHNWLALHGRGQDYCQLNPQPMAYYDGCISVDLSAIKPMIALPFHPSNVYEIDTLNQNLTDILREIEIESERVAHGKAKLSLLDKVENGRLKVQQGIIAGCSGGNYENVIAAANALRGQSCGNDTFSLAVYPSSQPVFMDLAKKGVVADLIGAGAIIRTAFCGPCFGAGDTPINNGLSIRHTTRNFPNREGSKPANGQMSAVALMDARSIAATAANGGYLTSASELDCWDNVPEYAFDVTPYKNRVYQGFVKGATQQPLIYGPNIKDWPELGALTDNIVLKVCSKILDEVTTTDELIPSGETSSYRSNPIGLAEFTLSRRDPGYVSRSKATAELENQRLAGNVSELTEVFARIKQIAGQEHIDPLQTEIGSMVYAVKPGDGSAREQAASCQRVIGGLANIAEEYATKRYRSNVINWGMLPLQMAEVPTFEVGDYIYIPGIKAALDNPGTTFKGYVIHEDAPVTEITLYMESLTAEEREIIKAGSLINFNKNRQM	soluble
MGSDKIHHHHHHMPNIIIIERDINYLKIFIKCMKESGFEVVCMNNTKLVSQVAQKQLPDLIICSLEIAKQNNCNFWNNLCQNFVTATIPLIFLINEASEIYQCPEFAADGYITKFCTTEELNKAIKAQLAKQAARKHGYAIQSQQVLNSPSIGNDQPNVQSILPSIPRLNLVFEFIAANYDKPISLCDVAEALGYSATYLTTVVTQTTGKSLQKWIIECRITAAQILLLQTDQSVNQIALKVGYENLAHFYRQFRDYHGTSPQVWREVEKSHNSHQLNKDKASLNSNNFGDFQ	not soluble
MGSDKIHHHHHHMELQVFTNEQFGEVRTATINNQIYFNLNDCCQILELSNPRKTIERLNKDGVTTSDIIDSLGRTQQANFINESNFYKLVFQSRKPEAEKFADWVTSEVLPSIRKHGAYMTEQTLEQALTSPDFLIRLANELKEEKERSRQLEAEKSILSVENMVMKPKADYFDDLVDRNLLTSFRETAKQLKVKERRFIQFLLDKKYVYRDKKGKLMPFADKNNGLFEVKESVNEKTNWAGTQTLITPKGRETFRLLFI	not soluble
DEAWLTEMLKRVNVLPEALVLTQAANESAWGTSRFATQANNLFGQWCYKQGCGIVPAQRAAGKTHEVQKFDSVQQSIHGYFMNVNRNPAYADLRDIRAMLADKHKNLFSVATASELTHGLLSYSERGIAYVNDLRSMIRHNNAYWTQ	not soluble
MTPDFQIVTQRLQLRLITADEAEELVQCIRQSQTLHQWVDWCHALFSQQEAEQFIQATRLNWVKAEAYGFGVFERQTQTLVGMVAINEFYHTFNMASLGYWIGDRYQRQGYGKEALTALILFCFERLELTRLEIVCDPENVPSQALALRCGANREQLAPNRFLYAGEPKAGIVFSLIP	soluble
MLCSMGTLFQRLSSLDGKGYGAYKSIAGRHALEGVPGAELFLDKVQSDPYAPASLSRVRVPLAALPFSGSLSTHQRDLLNRRIAGEFCHGLAIDCPGQQVLSRAAVTQLDDALQICFEVQLPARGRRIRGREAAQLLCTTLSRALDRALCITAGGDALRAELEAAAELERDQAALR	not soluble
SGKVILITGASRGIGLQLVKTVIEEDDECIVYGVARTEAGLQSLQREYGADKFVYRVLDITDRSRMEALVEEIRQKHGKLDGIVANAGMLEPVKSISQSNSEHDIKQWERLFDVNFFSIVSLVALCLPLLKSSPFVGNIVFVSSGASVKPYNGWSAYGCSKAALNHFAMDIASEEPSDKVRAVCIAPGVVDTQMQKDIRETLGPQGMTPKALERFTQLYKTSSLLDPKVPAAVLAQLVLKGIPDSLNGQYLRYNDERLGPVQG	soluble
MGTILDKIVNQKKKEVAALYETYTPVKEKRKTRSLVKALEQFTVIAEVKRASPSKGDINLHVDVRKQVKTYEECGAGAVSVLTDGQFFKGSFYDLQTAREESSIPLLCKDFIIDKIQIDRAYEAGADIILLIVAALTKEKLKELYSYVLEKGLEAIVEVHDEQELEIAIQLNPHVIGINNRNLKTFEVDLSQTEKLGKRLNEEKLLWISESGIHSKEDIIRVKRAGAKGVLVGEALMTSSSIHTFFEDCKVNI	not soluble
MGHHHHHHGGHMSLIDLHIHSNYSDGQGSVEEIARRAKERGLKAIAIVDHSIELPFGLTEKKARMREIEIENAASLYGIKIYSGIECSINAAGEIVLPDFDFDFIIASVHEFVYGQAYYERVIRCLESHDVDVLGHPFSPLFGFDGRLAEMDEKLLDVVEERGVAVELNSSHKSPQDEFLQLCRDRKIAYSIGSDAHSLSGVGEVGWSVEKAKRYMAGAKLFTPEGGS	soluble
MWRTRVVHTTGYVYQSPVTASYNEARLTPRSSSRQNLVLNRVETIPATRSYRYIDYWGTAVTAFDLHAPHTELTVTSSSVVETERPEPLAAKATWADLQSTAVIDRFDEVLRPTPHTPASARVDAVGRRIRKCHEPSEAVVAAARWARSELDYIPGTTSVHSSGLDALEQGKGVCQDFVHLSLMVLRSMGIPCRYVSGYLHPKRDAVVGKTVDGRSHAWVQAWTGGWWHYDPTNDNEITEQYISVGVGRDYTDVSPLKGIYSGEGVTDLDVVVEITRLA	soluble
MTHSHRRHDISDRIWSLLEGHLPGREGAWGGVATDNRQFINAVFWIIRTGAPWRDLPPDYGGWSNTHRRFIRWRDKGIWEKLLEILIDDPDYEWLIMDASHCKVHPHASGARGGNQDMNRTKGGSTPRYIWPWMRMVCRSESLLHKVPLLIARRLAA	not soluble
MRVVRPEFRPAPGLDTDAMASRQRDIAAVADFADDHGLTPERIGLDEPPGEQAALGGATTSGEAAPVVVGVDQAFRDDEVSVSAAVAIRDGAVIERAAGNAPLDVPYVPGLLAFREGSAVIDALSSLSVEPDLLVVDGSGRIHYRQAGLATHVGVLFDVPAVGVAKSLLCGTPAAALADPLPAGTRVAIEADDSMDAPDGAVVGYALQSRQYPTPETRHINPLYVSPGHRVSAGTAADLVEATCTQYKLPAPTRLADQYAADLT	not soluble
MPSSSNSAAFSLDEFAKALDKHDYHAEKGQTVHGKICQHANEGVYVDFGGKSPGFVPVQELGLRPHAEIEDSFPLDSAWDFLVTSEQNDEGQVRLSRRQLQIQQSWENLAELEESGKTLEMVVTGTNKGGVVGDVEGLRGFIPRSHLMHKDNMDALVGQVLKAHILEANQDNNKLVLTQRRIQQAESMGKIAAGNIYEGKVAKIQPYGVFVEIEGVTGLLHVSQVSGTRVDSLNTLFAFGQAISVYVQEIDEYKNRISLSTRILETYPGELVEKFDEMMADAPNRLPLVQSKQNLGDKQEQLEKSLEHHHHHH	not soluble
MRPMPTDDINSRIAELEADNRRLRQLLDKRDAPGELRHRLRSTVAMLRTIIRKSASKRHSLDTYVGHLEDRLDALMRAQAIADEQGAIDFHKLLADELLHYQARDGERVTFAGPDLHLQARAGQVLALAVHELAVNAVEHGALGGDGTIDIRWSVAGAGPAPLLTFVWKETDTAPVAEPSHHGFGTEVLTRTLEYELKAKTDLAFEPDGLRCTIRFPLSERVDGSQAG	not soluble
DCYCRIPACIAGEAAYGTCIYQGALWAFCC	soluble
MGSDKIHHHHHHMKKIQIVDDSQSNIRKLENLLNTHFLVTVARTGEEAVRMAKENVPDLILLEVALPDMDGFETCRRLKAQVESAKIPVIFVSSLKEKEAVIKGFEVGGQDYIIKPFEARELVLRMKSLLKQESSRKRLEQHVKVLEEQNEKLKGKIQKVDRLSRVDFLTNLMNRRDMQEKIRAEINRSIRHGRSFTLAIVDIDFFKNINDTYGHDCGDHVLKHFVSTLKNSVRSSDYVSRWGGEEFLLLFPETKLEEGKRACEKIRQKINESPVIYKGMSISITATFGISEYRPSVRIEELIKAADDALYKGKKTGKNQVVVQSM	not soluble
SNASVFDLFSIGIGPSSSHTVGPMLAANAFLQLLEQKNLFDKTQRVKVELYGSLALTGKGHGTDKAILNGLENKAPETVDPASMIPRMHEILDSNLLNLAGKKEIPFHEATDFLFLQKELLPKHSNGMRFSAFDGNANLLIEQVYYSIGGGFITTEEDFDK	soluble
SYETSQHNLDAVEAVLSRLQKQTGEMAAYMVPVGYRALCVSQRESMQALRCSFVQGQSQPLLRGASSKVMLAYMPAARCEKILRYFGEDPTLDKWQSEFEKIRRHGYAVSTSEIDPGVSGISAPVMKGSKLIGAISVMAPAHRVESNKQRIILHVLQAARALPPER	not soluble
MLTSEIAACCKKLRLSRNIVEMSGKIQADNHQEYLLKLLKSEIIHREKTRNAKLLRKAGFYTIKTFESFRFDEVTLPGDITPEYLKECEFVKNKTNIVMYGNVGTGKTHLSIALGVEACKRGYEVRFFRTSALVNKLAEEKRVGTLSSFLKKLNKAELLICDEWRYVPLDRIGAQLLFEVISERYENKAVIINTNIEFSRWVNIFYDEQMTGAIVDRILHHCHLLLFFGQSNRMRESRLNT	not soluble
MKFLKNVLEEGSKLEEFNELELSPEDKELLEYLQQTKAKITVVGCGGAGNNTITRLKMEGIEGAKTVAINTDAQQLIRTKADKKILIGKKLTRGLGAGGNPKIGEEAAKESAEEIKAAIQDSDMVFITCGLGGGTGTGSAPVVAEISKKIGALTVAVVTLPFVMEGKVRMKNAMEGLERLKQHTDTLVVIPNEKLFEIVPNMPLKLAFKVADEVLINAVKGLVELITKDGLINVDFADVKAVMNNGGLAMIGIGESDSEKRAKEAVSMALNSPLLDVDIDGATGALIHVMGPEDLTLEEAREVVATVSSRLDPNATIIWGATIDENLENTVRVLLVITGVQSRIEFTDTGLKRKKLELTGIPKIGSHHHHHH	soluble
MSGIKPSVSKGESQAPQTRQLEASKPTVQGIIDILHDTISYVQVEKQSKTINFSIPHLQMIKEQLESIQLKDKNYKDLEKKFNEKQDEHLETIQKLDSTLSRQKLKYDDMRQALSVKIYTLENECSNLQDNYADLQNDFEVQIEKFKKLQNLKSIQNHENSKNVNPLTLDELTEQLKQFKEELSIDQKLKNIQLTCEGLQSAVGNFEMNSKKAKEIEILKMDIKKTQELYESRLLRAAQENKKLLRKNDTLKNYLDNQTAKIGELTAGNKTENRSPTPTLQGLIEILQKFSDDQKLEPECKMLQLHKEECRLILESLEVHDKKDQEIQWFQRQINDQKKRIANLGWSYENALEDKDALELKLEHQYEQMMELKKNFIPKNEISEDLAKTVRNFGKRLRNSRGNLKNAFKELEALKEVQEEEGSSDESSESSASDDLPDGDSSSEE	not soluble
HMIFAKGHGTQNDFVLLPDVDAELVLTAARVAALCDRRKGLGADGVLRVTTAGAAQAVGVLDSLPEGVRVTDWYMDYRNADGSAAQMCGNGVRVFAHYLRASGLEVRDEFVVGSLAGPRPVTCHHVEAAYADVSVDMGKANRLGAGEAVVGGRRFHGLAVDVGNPHLACVDSQLTVDGLAALDVGAPVSFDGAQFPDGVNVEVLTAPVDGAVWMRVHERGVGETRSCGTGTVAAAVAALAAVGSPTGTLTVHVPGGEVVVTVTDATSFLRGPSVLVARGDLADDWWNAMG	soluble
